From US20180155451A1 (published 2018) come the findings set out here.

B1: GpH7-A5/GpH7-B3 variant S298_16H/GpL16-k0 (antibody, human IgG1, kappa)
heavy 1: not shown
heavy 2: not shown
light: DIVMTQSPLSLPVTPGEPASISCQASESLVHSNRNTYLHWYLQKPGQSPQLLIYKVSNRFSGVPDRFSGSGSGTDFTLKISRVEAEDVGVYYCSQNTHVPPTFGQGTKVEIERTVAAPSVFIFPPSDEQLKSGTASVVCLLNNFYPREAKVQWKVDNALQSGNSQESVTEQDSKDSTYSLSSTLTLSKADYEKHKVYACEVTHQGLSSPVTKSFNRGEC
notes: mutation in one H chain only; also called He Ab S298_16H; S298H
B2: GpH7-A5/GpH7-B3 variant S298_19Q/GpL16-k0 (antibody, human IgG1, kappa)
heavy 1: not shown
heavy 2: not shown
light: DIVMTQSPLSLPVTPGEPASISCQASESLVHSNRNTYLHWYLQKPGQSPQLLIYKVSNRFSGVPDRFSGSGSGTDFTLKISRVEAEDVGVYYCSQNTHVPPTFGQGTKVEIERTVAAPSVFIFPPSDEQLKSGTASVVCLLNNFYPREAKVQWKVDNALQSGNSQESVTEQDSKDSTYSLSSTLTLSKADYEKHKVYACEVTHQGLSSPVTKSFNRGEC
notes: mutation in one H chain only; also called He Ab S298_19Q; S298Q
B3: GpH7-A5/GpH7-B3 variant S324_12R/GpL16-k0 (antibody, human IgG1, kappa)
heavy 1: not shown
heavy 2: not shown
light: DIVMTQSPLSLPVTPGEPASISCQASESLVHSNRNTYLHWYLQKPGQSPQLLIYKVSNRFSGVPDRFSGSGSGTDFTLKISRVEAEDVGVYYCSQNTHVPPTFGQGTKVEIERTVAAPSVFIFPPSDEQLKSGTASVVCLLNNFYPREAKVQWKVDNALQSGNSQESVTEQDSKDSTYSLSSTLTLSKADYEKHKVYACEVTHQGLSSPVTKSFNRGEC
notes: mutation in one H chain only; also called He Ab S324_12R; S324R
B4: GpH7-A5/GpH7-B3 variant S298_10E/GpL16-k0 (antibody, human IgG1, kappa)
heavy 1: not shown
heavy 2: not shown
light: DIVMTQSPLSLPVTPGEPASISCQASESLVHSNRNTYLHWYLQKPGQSPQLLIYKVSNRFSGVPDRFSGSGSGTDFTLKISRVEAEDVGVYYCSQNTHVPPTFGQGTKVEIERTVAAPSVFIFPPSDEQLKSGTASVVCLLNNFYPREAKVQWKVDNALQSGNSQESVTEQDSKDSTYSLSSTLTLSKADYEKHKVYACEVTHQGLSSPVTKSFNRGEC
notes: mutation in one H chain only; also called He Ab S298_10E; S298E
B5: GpH7-A5/GpH7-B3 variant S324_02A/GpL16-k0 (antibody, human IgG1, kappa)
heavy 1: not shown
heavy 2: not shown
light: DIVMTQSPLSLPVTPGEPASISCQASESLVHSNRNTYLHWYLQKPGQSPQLLIYKVSNRFSGVPDRFSGSGSGTDFTLKISRVEAEDVGVYYCSQNTHVPPTFGQGTKVEIERTVAAPSVFIFPPSDEQLKSGTASVVCLLNNFYPREAKVQWKVDNALQSGNSQESVTEQDSKDSTYSLSSTLTLSKADYEKHKVYACEVTHQGLSSPVTKSFNRGEC
notes: mutation in one H chain only; also called He Ab S324_02A; S324A
B6: GpH7-A5/GpH7-B3 variant S298_08L/GpL16-k0 (antibody, human IgG1, kappa)
heavy 1: not shown
heavy 2: not shown
light: DIVMTQSPLSLPVTPGEPASISCQASESLVHSNRNTYLHWYLQKPGQSPQLLIYKVSNRFSGVPDRFSGSGSGTDFTLKISRVEAEDVGVYYCSQNTHVPPTFGQGTKVEIERTVAAPSVFIFPPSDEQLKSGTASVVCLLNNFYPREAKVQWKVDNALQSGNSQESVTEQDSKDSTYSLSSTLTLSKADYEKHKVYACEVTHQGLSSPVTKSFNRGEC
notes: mutation in one H chain only; also called He Ab S298_08L; S298L
B7: GpH7-A5/GpH7-B3 variant S298_15Y/GpL16-k0 (antibody, human IgG1, kappa)
heavy 1: not shown
heavy 2: not shown
light: DIVMTQSPLSLPVTPGEPASISCQASESLVHSNRNTYLHWYLQKPGQSPQLLIYKVSNRFSGVPDRFSGSGSGTDFTLKISRVEAEDVGVYYCSQNTHVPPTFGQGTKVEIERTVAAPSVFIFPPSDEQLKSGTASVVCLLNNFYPREAKVQWKVDNALQSGNSQESVTEQDSKDSTYSLSSTLTLSKADYEKHKVYACEVTHQGLSSPVTKSFNRGEC
notes: mutation in one H chain only; also called He Ab S298_15Y; S298Y
B8: GpH7-A5/GpH7-B3 variant S324_08L/GpL16-k0 (antibody, human IgG1, kappa)
heavy 1: not shown
heavy 2: not shown
light: DIVMTQSPLSLPVTPGEPASISCQASESLVHSNRNTYLHWYLQKPGQSPQLLIYKVSNRFSGVPDRFSGSGSGTDFTLKISRVEAEDVGVYYCSQNTHVPPTFGQGTKVEIERTVAAPSVFIFPPSDEQLKSGTASVVCLLNNFYPREAKVQWKVDNALQSGNSQESVTEQDSKDSTYSLSSTLTLSKADYEKHKVYACEVTHQGLSSPVTKSFNRGEC
notes: mutation in one H chain only; also called He Ab S324_08L; S324L
B9: GpH7-A5/GpH7-B3 variant S324_16H/GpL16-k0 (antibody, human IgG1, kappa)
heavy 1: not shown
heavy 2: not shown
light: DIVMTQSPLSLPVTPGEPASISCQASESLVHSNRNTYLHWYLQKPGQSPQLLIYKVSNRFSGVPDRFSGSGSGTDFTLKISRVEAEDVGVYYCSQNTHVPPTFGQGTKVEIERTVAAPSVFIFPPSDEQLKSGTASVVCLLNNFYPREAKVQWKVDNALQSGNSQESVTEQDSKDSTYSLSSTLTLSKADYEKHKVYACEVTHQGLSSPVTKSFNRGEC
notes: mutation in one H chain only; also called He Ab S324_16H; S324H
B10: GpH7-A5/GpH7-B3 variant S298_12R/GpL16-k0 (antibody, human IgG1, kappa)
heavy 1: not shown
heavy 2: not shown
light: DIVMTQSPLSLPVTPGEPASISCQASESLVHSNRNTYLHWYLQKPGQSPQLLIYKVSNRFSGVPDRFSGSGSGTDFTLKISRVEAEDVGVYYCSQNTHVPPTFGQGTKVEIERTVAAPSVFIFPPSDEQLKSGTASVVCLLNNFYPREAKVQWKVDNALQSGNSQESVTEQDSKDSTYSLSSTLTLSKADYEKHKVYACEVTHQGLSSPVTKSFNRGEC
notes: mutation in one H chain only; also called He Ab S298_12R; S298R
B11: GpH7-A5/GpH7-B3 variant S324_11K/GpL16-k0 (antibody, human IgG1, kappa)
heavy 1: not shown
heavy 2: not shown
light: DIVMTQSPLSLPVTPGEPASISCQASESLVHSNRNTYLHWYLQKPGQSPQLLIYKVSNRFSGVPDRFSGSGSGTDFTLKISRVEAEDVGVYYCSQNTHVPPTFGQGTKVEIERTVAAPSVFIFPPSDEQLKSGTASVVCLLNNFYPREAKVQWKVDNALQSGNSQESVTEQDSKDSTYSLSSTLTLSKADYEKHKVYACEVTHQGLSSPVTKSFNRGEC
notes: mutation in one H chain only; also called He Ab S324_11K; S324K

For the assay, the target named is T1, FcγRIa extracellular domain with C-terminal His tag (human, UniProt P12314 16-292).
T1 construct: extracellular domain; also called FcgRI; CD64; not shown: His tag at the C terminus
T1 sequence (P12314 16-292): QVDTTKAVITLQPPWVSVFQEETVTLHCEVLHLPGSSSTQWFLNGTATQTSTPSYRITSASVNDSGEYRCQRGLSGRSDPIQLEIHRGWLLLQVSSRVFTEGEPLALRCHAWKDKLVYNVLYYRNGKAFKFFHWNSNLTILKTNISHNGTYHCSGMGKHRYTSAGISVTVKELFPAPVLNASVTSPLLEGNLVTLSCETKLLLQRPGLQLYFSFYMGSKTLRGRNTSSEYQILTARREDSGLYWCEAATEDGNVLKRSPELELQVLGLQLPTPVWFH
The experiment in a line: SPR Biacore, relative FcγRIa binding vs GpH7-A5/GpH7-B3/GpL16-k0.
Consider B1, for which the He/Con_1a was 109 % of HeCon Ab (=100). The result for B2 reads 109 % of HeCon Ab (=100).

On to B3, for which the He/Con_1a is 102 % of HeCon Ab (=100). The result for B4 reads 108 % of HeCon Ab (=100). B5: the He/Con_1a was 103 % of HeCon Ab (=100). Consider B6, for which the He/Con_1a was 107 % of HeCon Ab (=100). B7: the He/Con_1a is 107 % of HeCon Ab (=100).

In the case of B8, the He/Con_1a was 103 % of HeCon Ab (=100). The result for B9 reads 113 % of HeCon Ab (=100); that for B10, 109 % of HeCon Ab (=100); that for B11, 102 % of HeCon Ab (=100).
